Article PMC8329185

Tests used:
[1] = molecular target: SNUPN (Homo sapiens) (UniProt O95149); conditions: cited from earlier work
[2] = molecular target: GFP-TRAP1; assay: bead halo assay
[3] = molecular target: GFP-RPS6KA3; assay: bead halo assay
[4] = molecular target: GFP-NELF; assay: bead halo assay
[5] = molecular target: GFP-CPSF6; assay: bead halo assay
[6] = molecular target: GFP-SRSF7; assay: bead halo assay
[7] = molecular target: EIF5A (Homo sapiens) (UniProt P63241); conditions: cited from earlier work
EIF5A (Homo sapiens), sequence (P63241 2-154): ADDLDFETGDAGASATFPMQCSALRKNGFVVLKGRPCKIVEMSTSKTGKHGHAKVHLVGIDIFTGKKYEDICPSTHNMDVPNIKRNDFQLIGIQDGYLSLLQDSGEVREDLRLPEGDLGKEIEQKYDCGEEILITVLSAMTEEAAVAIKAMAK

Xpo4, sequence (Q9C0E2 whole entry): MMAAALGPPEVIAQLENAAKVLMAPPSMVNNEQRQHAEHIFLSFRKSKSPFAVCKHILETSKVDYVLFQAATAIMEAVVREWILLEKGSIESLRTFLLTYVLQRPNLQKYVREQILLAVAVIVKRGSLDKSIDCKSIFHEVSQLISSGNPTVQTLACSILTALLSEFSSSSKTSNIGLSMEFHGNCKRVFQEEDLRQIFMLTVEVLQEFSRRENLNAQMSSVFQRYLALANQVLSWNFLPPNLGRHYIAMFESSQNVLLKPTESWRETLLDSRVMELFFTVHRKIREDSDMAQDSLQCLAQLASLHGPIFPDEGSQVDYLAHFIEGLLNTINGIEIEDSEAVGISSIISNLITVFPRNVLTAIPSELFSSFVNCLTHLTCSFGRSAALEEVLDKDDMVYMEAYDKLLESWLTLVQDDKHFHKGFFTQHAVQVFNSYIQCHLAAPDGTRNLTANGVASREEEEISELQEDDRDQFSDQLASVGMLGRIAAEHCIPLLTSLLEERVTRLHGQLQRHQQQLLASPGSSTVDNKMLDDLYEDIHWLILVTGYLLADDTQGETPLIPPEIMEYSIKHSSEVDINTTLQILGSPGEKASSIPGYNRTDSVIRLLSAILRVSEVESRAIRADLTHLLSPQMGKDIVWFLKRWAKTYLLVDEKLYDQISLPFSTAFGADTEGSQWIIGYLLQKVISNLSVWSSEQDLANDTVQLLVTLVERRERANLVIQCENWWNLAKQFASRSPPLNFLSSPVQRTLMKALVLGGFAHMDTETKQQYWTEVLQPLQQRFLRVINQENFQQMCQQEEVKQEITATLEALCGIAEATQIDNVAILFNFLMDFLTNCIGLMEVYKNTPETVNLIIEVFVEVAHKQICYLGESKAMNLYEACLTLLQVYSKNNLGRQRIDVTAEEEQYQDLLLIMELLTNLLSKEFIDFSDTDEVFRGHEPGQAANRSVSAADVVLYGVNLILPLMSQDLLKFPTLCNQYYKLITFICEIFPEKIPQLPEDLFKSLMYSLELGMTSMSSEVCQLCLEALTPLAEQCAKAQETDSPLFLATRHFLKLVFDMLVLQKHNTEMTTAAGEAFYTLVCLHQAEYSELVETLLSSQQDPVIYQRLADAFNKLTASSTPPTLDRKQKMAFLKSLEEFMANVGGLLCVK
CRM1, sequence (O14980 whole entry): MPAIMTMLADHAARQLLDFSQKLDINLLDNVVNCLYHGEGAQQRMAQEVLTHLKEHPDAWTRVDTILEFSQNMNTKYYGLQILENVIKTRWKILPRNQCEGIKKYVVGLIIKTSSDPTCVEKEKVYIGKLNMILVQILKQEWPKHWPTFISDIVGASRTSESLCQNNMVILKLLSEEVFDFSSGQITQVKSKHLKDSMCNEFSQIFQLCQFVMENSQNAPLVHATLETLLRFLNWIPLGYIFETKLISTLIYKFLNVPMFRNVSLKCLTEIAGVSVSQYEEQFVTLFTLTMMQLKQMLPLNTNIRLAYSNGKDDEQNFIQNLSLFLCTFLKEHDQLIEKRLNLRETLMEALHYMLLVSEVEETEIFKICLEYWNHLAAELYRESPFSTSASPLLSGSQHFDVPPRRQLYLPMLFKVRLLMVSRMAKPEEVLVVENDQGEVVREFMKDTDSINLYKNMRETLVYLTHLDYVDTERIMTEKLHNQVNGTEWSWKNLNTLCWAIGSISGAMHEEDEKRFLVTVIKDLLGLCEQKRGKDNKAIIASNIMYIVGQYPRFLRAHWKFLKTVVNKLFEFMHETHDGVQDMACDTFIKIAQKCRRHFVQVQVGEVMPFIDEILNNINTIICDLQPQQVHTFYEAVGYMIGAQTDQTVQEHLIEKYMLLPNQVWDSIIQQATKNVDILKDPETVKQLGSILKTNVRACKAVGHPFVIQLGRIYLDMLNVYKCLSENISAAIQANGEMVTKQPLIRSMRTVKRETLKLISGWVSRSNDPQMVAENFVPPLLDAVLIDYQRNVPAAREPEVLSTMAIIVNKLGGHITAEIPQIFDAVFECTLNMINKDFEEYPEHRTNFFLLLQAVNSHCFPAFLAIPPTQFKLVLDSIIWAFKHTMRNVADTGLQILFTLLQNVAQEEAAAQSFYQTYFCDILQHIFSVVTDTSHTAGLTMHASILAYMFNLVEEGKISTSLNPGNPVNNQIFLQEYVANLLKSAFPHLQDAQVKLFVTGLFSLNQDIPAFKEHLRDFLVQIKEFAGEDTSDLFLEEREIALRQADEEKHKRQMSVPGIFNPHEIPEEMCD
SNUPN (Homo sapiens), sequence (O95149 whole entry): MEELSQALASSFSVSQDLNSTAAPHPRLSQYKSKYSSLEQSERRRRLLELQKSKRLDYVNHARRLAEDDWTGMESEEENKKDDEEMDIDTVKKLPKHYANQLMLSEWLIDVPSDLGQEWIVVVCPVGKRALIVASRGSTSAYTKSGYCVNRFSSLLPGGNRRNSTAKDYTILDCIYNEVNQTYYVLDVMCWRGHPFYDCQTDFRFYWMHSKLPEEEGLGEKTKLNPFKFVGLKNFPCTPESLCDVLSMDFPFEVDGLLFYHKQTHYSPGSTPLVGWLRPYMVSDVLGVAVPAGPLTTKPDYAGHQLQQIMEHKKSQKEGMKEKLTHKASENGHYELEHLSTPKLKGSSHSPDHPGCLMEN

Substance	Kd [1]	response [2]	response [3]	response [4]	response [5]	response [6]	Kd [7]
CRM1 (from UniProt O14980)	10 nM	–	–	–	–	–	–
GST-mCherry-TrnSR (WT) (from UniProt Q9Y5L0) D409R	–	1.35 GFP/mCherry	0.13 GFP/mCherry	2.89 GFP/mCherry	0.46 GFP/mCherry	0.67 GFP/mCherry	–
GST-mCherry-TrnSR (WT) (from UniProt Q9Y5L0) E398R	–	1.11 GFP/mCherry	0.09 GFP/mCherry	1.14 GFP/mCherry	0.15 GFP/mCherry	0.94 GFP/mCherry	–
GST-mCherry-TrnSR (WT) (from UniProt Q9Y5L0) R671E	–	1.16 GFP/mCherry	0.37 GFP/mCherry	0.5 GFP/mCherry	0.15 GFP/mCherry	0.26 GFP/mCherry	–
Xpo4 (from UniProt Q9C0E2)	–	–	–	–	–	–	2 nM
